Molecular target: PitA (E. coli (endogenous in MG1655)) (UniProt P0AFJ7)
Assay: cross-linking

Chain of UniProt P0AFJ7 (P0AFJ7 whole entry): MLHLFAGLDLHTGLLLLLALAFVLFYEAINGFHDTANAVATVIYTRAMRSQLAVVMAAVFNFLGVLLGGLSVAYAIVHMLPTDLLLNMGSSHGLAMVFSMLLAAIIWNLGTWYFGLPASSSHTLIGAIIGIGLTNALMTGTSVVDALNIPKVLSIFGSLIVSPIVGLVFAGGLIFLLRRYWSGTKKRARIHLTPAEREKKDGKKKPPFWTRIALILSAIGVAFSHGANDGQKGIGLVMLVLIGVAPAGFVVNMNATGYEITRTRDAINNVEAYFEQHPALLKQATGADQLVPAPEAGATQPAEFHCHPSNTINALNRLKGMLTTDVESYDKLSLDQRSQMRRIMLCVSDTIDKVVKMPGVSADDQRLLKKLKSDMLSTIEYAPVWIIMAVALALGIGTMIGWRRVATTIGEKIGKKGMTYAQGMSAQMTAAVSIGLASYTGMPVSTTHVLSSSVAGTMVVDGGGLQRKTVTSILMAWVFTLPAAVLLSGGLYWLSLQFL

Question: “MgtS-SPA (from UniProt A5A616 1-31) (natural protein)” was tested. Which stoichiometry N (MgtS-SPA per PitA) did it give?
Answer: 1

Source: article PMC6351178
